Assay results taken from the DeepSol protein solubility set.

test: soluble on expression in E. coli; label from the status in PepcDB or PDB records

Sequence	soluble on expression in E. coli
MSDMNNPADDNNGAMDDLWAEALSEQKSTSEKSAADAVFQQFGGGDVSGTLQDIDLIMDIPVKLTVELGRTRMTIKELLRLTQGSVVALDGLAGEPLDILINGYLIAQGEVVVVADKYGVRITDIITPSERMRRLSR	not soluble
MAHHHHHHMSAVLMAAVKVWTGNVRACLRVHHDTRTFCKAMKMRNLPVVLLDGVRFASLESVQHGKVRTRKDVVSGDLCVAIRKLNGVELMDDVQPRDPAIFLRDEKSKTFSAEEAREIYSIIVKSLSHILVVDSEVKTVECGIKRIMGNSTATEPETPKLTDLIRWLKSNMSTHDVLPIFSTQDRTVTFFVNQKIFRRIGHSDNGRRKK	not soluble
MGSDKIHHHHHHMKNMTLDSLDMLSANILVNLYEKHSASSVAMEMNIPAPKVSRCLQHARMIFNDPLFIRKKHGLEPNEFTRQLYPLVKALVQCGEQLQQLESCHDLAASQVMVLYVSDLLIAELPQRLSSAISEAQLPISYELRTGSVDLVEDLAQGLVDLAIVSESSDRALQDDRLIVSPLTELTHLYLLCSHKHPLLQQEISLGNIANYPYLSAFGQLDKQAPDPFQRYCAQQRLSCHLAPVELGREGLAFHQLYRYLSDDKTVSLLPYSRVYEHSEQLPGLHVCCLSGMDTARLYRDQPYPRLYMLSRSGRGGAHLEWMKQEIGQLIKQNVH	not soluble
MGHHHHHHSHMPATLLRAVARSHHILSKAHQCRRIGHLMLKPLKEFENTTCSTLTIRQSLDLFLPDKTASGLNKSQILEMNQKKSDTSMLSPLNAARCQDEKAHLPTMKSFGTHRRVTHKPNLLGSKWFIKILKRHFSSVSTETFVPKQDFPQVKRPLKASRTRQPSRTNLPVLSVNEDLMHCTAFATADEYHLGNLSQDLASHGYVEVTSLPRGTSS	not soluble
MKLAVLGTGMIVKEVLPVLQKIDGIDLVAILSTVRSLTTAKDLAKAHHMPLATSKYEAILGNEEIDTVYIGLPNHLHFAYAKEALLAGKHVICEKPFTMTAGELDELVVIARKRKLILLEAITNQYLSNMTFIKEHLDQLGDIKIVECNYSQYSSRYDAFKRGDIAPAFNPKMGGGALRDLNIYNIHFVVGLFGRPKTVQYLANVEKGIDTSGMLVMDYEQFKVVCIGAKDCTAEIKSTIQGNKGSLAVLGATNTLPQVQLSLHGHEPQVINHNKHDHRMYEEFVAFRDMIDQRDFEKVNQALEHSRAVMAVLERAVHS	not soluble
MSGSNTAISRRRLLQGAGAMWLLSVSQVSLAAVSQVVAVRVWPASSYTRVTVESNRQLKYKQFALSNPERVVVDIEDVNLNSVLKGMAAQIRADDPFIKSARVGQFDPQTVRMVFELKQNVKPQLFALAPVAGFKERLVMDLYPANAQDMQDPLLALLEDYNKGDLEKQVPPAQSGPQPGKAGRDRPIVIMLDPGHGGEDSGAVGKYKTREKDVVLQIARRLRSLIEKEGNMKVYMTRNEDIFIPLQVRVAKAQKQRADLFVSIHADAFTSRQPSGSSVFALSTKGATSTAAKYLAQTQNASDLIGGVSKSGDRYVDHTMFDMVQSLTIADSLKFGKAVLNKLGKINKLHKNQVEQAGFAVLKAPDIPSILVETAFISNVEEERKLKTATFQQEVAESILAGIKAYFADGATLARRG	soluble
GDDYTQQQGEVEKQPNIDELKKRMEQSRLNKLRGDLDQLIESDPKLRALRPHLKIDLVQEGLRIQIIDSQNRPMFKTGSAEVEPYMRDILRAIAPVLNGIPNRISLAGHTDDFPYANGEKGYSNWELSADRANASRRELVAGGLDNGKVLRVVGMAATMRLSDRGPDDAINRRISLLVLNKQAEQAILHENAESQNEPVSVLQQHHHHHH	soluble
MVGNMNREALFKTLTTGYLHFWSLSRKKLWLKGETSGNFQIIEEFKVDCDADAVLFKVTSLGPICHTGNYTCFYRSYDELVNSKS	soluble
MQDILFDFISTYISLTEDEKNALLSLDLFRSVPKGTILLKEGQKSQESYFVLKGCIRIYYIIDGEEKTTAFYTEMDALTPPCVIHNAPSEYFISCIEDSILTVSNLEMEAEINSKFPKFELMCRMLSEELLAKQQIDFDAFKTSSPEQRYLNVLQNRPDLIQRVPQHQLASFLGIKPQSLSRLRARIVDKKS	not soluble
MSIVPGVVHSLYGDAKARWTINEYADLECPFCKVYTPRLKRWVDSHTDVNLVWRHLPLQMHGEAARHQARLVECAGIQGGAKAFWSAIDAIFAQSAGNGGGLPGGTLDFPDLDQARLEKCAKDMDLVDQLIKTDIDTARSNGITATPTLVIQDNQTGRSVKLEGMADETTLLSAIDWLAKDL	not soluble
MDVTDKIRPWMKECRLCPRNCGADRMAGQKGFCGTDTEIMVARAALHMWEEPCISGKEGSGAVFFSGCSLGCNFCQNRRISRGQRGKKITQEHLVELFFQLQEQGANNINLVTAGHFLPQVAVALEMAKEQGLHIPVVYNSSGYEKAKTLKMLDGLVDIYLPDFKYMDAVLAKKYSHAQDYPEIAKEALSEMVRQVGEAEFDSRGMMKKGVIVRQLLLPGHVKDAKNVLKYLYETYGDRIYISMMNQYTPMPAMKDDPQLSRKVTDREYERLIDYAISLGLKNGFMQEGETAKESFIPEFDGEGV	not soluble
MGSDKIHHHHHHMLELRHLRTLIALRDAGSLVEAAERVHLTQSALSHQIKDLEERLGSPLFLRKTRPVTFTRAGERLLALAEQILPQIRMAERDLARLAGHEQGRLHMAIECHSCFQWLMPTIDHFRDHWPEVEVDIPSGYSFDALPSLARESLDLVITADPQPLAGIHYEPLFRYEGLLAVGKQHPLARRDWVTPEELARETLITYPVEHTRLDVFTQFLTPAGFTPAEVRTAELTIMMMQLVASGRGVCALPNWALTEYLERGYVRALHLGEQGVWSTLFAAIREESRDAPWMEDFLRTARETSFAVLAGIKPA	not soluble
MAIRKLLLLLKPIDPYPFLQTEGASLIKNPQVLINYLPQMRLISILNPDHVLQYLESRCKVHKNAIKFCQEILSKKPVEWKPISRNDLSHPIRDVDMVITVGGDGTLLHASHFIDDSVPVLGVNSDPTQAHEVEELSDQFDASRSTGHLCAATVENFEQVLDDILFGRVVPAKVSRISLKLNSETLLSHALNDILIAQPCPAAVSRFSFKIKNKDGASSPKTVNCRSSGLRICTAAGSTAAMQSAGGFVMPMLSRDLQFMVREPISPGSTASLMHSTFKPDQFMDVNWYSDHGTIYIDGCQVQHSVQLGDTIEISSDAPVLNVFLSHGISQIRSRY	soluble
GMARLKNLPQERPLPLASLIEARENQVLSMALAQSDRVQISLFSFADGESVSEEEYFGDTLYLILQGEAVITFDDQKIDLVPEDVLMVPAHKIHAIAGKGRFKMLQITLIDEER	soluble
MGSDKIHHHHHHMKYQQKLRNMIDFIGKHLDEELSLESLSEIFCISKFHFHRLFTAFTGLSLQQYIKWLRLKRAAHQLIVDKDQSVINIAINAGFESHEAFSRAFKKACGFSPSQFRQGFGRSYWEQPPYCLPGQSRTDMKVDIKSIDKIRLAVIEHKGDPKLLGESINKLVSWAKSQSINLKPRAGEAFALAYDDPKTTPPSDFRIDLGIKVPENLKLDGVIEKFLPSGRYAVTVHKGSRNNIGDVVYYLYRDWLPNTSEQLGDLPCIFCYYNFDHEVAETELLTECWLLLK	not soluble
MGFYQGPDNRKITGGLKGKHRDKRKYEIGNPPTFTTLSAEDIRIKDRTLGGNFKVRLKYTTTANVLDPATNTAKKVKILEILETPANKELARRGIIIRGAKIRTEAGLAVVTSRPGQDGVINAVLLKNESQRSLEHHHHHH	not soluble
MASYRVAALYRFTRFEDPAAIQGPLAALCCSLGVKGTLLLAREGINGTIAGEDAAIEAVLAHIRALPGCADLTPKTAWAERMPFYRMKVRLKKEIVTLGEPDLDPTDAGTYVEPADWNALISDPDVLVIDTRNAYEVAVGRFEGAIDPQTASFADFPAWFRDWRKSVEAQRGPEAPLKVAMYCTGGIRCEKSTAFLKAEGVEQVFHLKGGVLDYLEQIPQPESLWRGECFVFDERVSVGHGLVKGDHVLCRGCRMPVSPQDQASPLYVEGVACPACHDQRNEEQKARAAERHRQVLHCEALGVDHVGATLPTKIDLEHHHHHH	not soluble
MPLVQMKDILMKANQENYGVGAFSVTNMEMVMGAIKAAEELSSPLILQIAEVRLNHSPIHMIGPLMVAAAKQATVPVAVHFDHGMTFEKIQETLEIGFSSVMFDGSHYPLEENIQKTKEIVELAKQYGATVEAEIGRVGGSEDGSEDIEMLLTSTTEAKRFAEETDVDALAVAIGNAHGMYNGDPNLRLDRLQEINDVVHIPLVLHGGSGISPEDFKQCIQHGVRKINVATATFQNVITAVNNTVLNTPYSDYFTYHQDVIKAAYENVKSHMQIFGSENRA	not soluble
MREKELKHIENLLLLKVKKEKIEETDKIKEYLKRFEDERRFDGIKESTIKSDLDRLRVFLDYCINYLGKNPEELKTSDFVKFFNYLDTVRKVSKSSQRKYFLLLKVFYRVLRMYNVIQEFVEESKDRKRFARIEIQHYDAVDAEMLNMILKKIIESGSRTRIRDALIIRLLWDTGCRVSEVLNLKYKDCDLDNGIFKIRNTKTHEERTVVCSSDTLELLRNYVQFNVRQGSDDYLFQNSQGGRVRKEWISEVFRKAVNELKEEGKIPKNRRIVIHSIRHGRAVDLLNKGVPIDIVKEYLGHKSMNTTLIYAHSKERAESLEFIKKLLRIQ	not soluble
MCIIKPMDDVVKFIHEVGSLKLTPRSGWLKLGIRLPESVAEHSFRAAIIAFILALKSGESVEKACKAATAALFHDLHEARTMDLHKIARRYVSCDEEGAREEQLSWMESKPDFSDVEVYVSDADKLELAFQGVEYSQQVSYAIRFAENVELKTDAAKEIYRVLMERKNPVWWR	soluble
MARYEEVSVSGFEEFHRAVEQHNGKTIFAYFTGSKDAGGKSWCPDCVQAEPVVREGLKHISEGCVFIYCQVGEKPYWKDPNNDFRKNLKVTAVPTLLKYGTPQKLVESECLQANLVEMLFSED	soluble
MPATAYERVVYKSPSEYHYMKVCLEFQEHGVGLNVAQFKQLLVSALRDLFGEVGAALPVDVLTYDEKTLSAILRICSSGLVKLWSSLTLFGAYKSKKCAFRVIQVSPFLLALSGNSREQVLD	not soluble
MNVDVLLKNVWLYQTVTQTFVQRNVAIKNDKFYYIYEEENVNLQPQKTINAENQWMIPGLIDAHMHIESSMTTPTIFSKAVVRYGVTTVIADAHEMANVFGLEGLKAFMAAETELDIFHAIPSSVPSTTPELETTGGIIGLAEVAELLKEPKVICLGEAMNFKGISYEPDSLIRQIIDLCQKQRPTMPLEGHCPKIEDQELADFLYSGITSDHTHQFPKTLKEKIEAGVFIQFQNKSITPENIQVIVDNDFYNYASIITDDVMADDLLKGHLNENVKKAVHAGLPIEKAIYMATYTPAKRMGLHDRGEIAPGKKADFLLLNDLESFDINTVYKSGKVVFEKGEPFHYPEKIEEFPATYQQTIQCKKLTEEDLLLKVATTKETVRCNVIQKQEIGTFTERITKEIPVENGLLQWQKANCALLIVMERYGKNGNISFSLMDQPLSEKGAIATTWAHDHHNLMVMGNTIEDILLAQNELLAMQGGYLVASDQQVMATCPLPIGGILSQAPIEQLGASLQKVRQAMQALGYQNMNEIMSFSTLSLPVSPAIKVTDFGMMDTKSQRFYPLVFPEDGVLLHENTH	not soluble
MPMIIKQEQFIPKDTVETTIDLLIRNLTTIKDNTGEFLLDFDGLKVDDKSWTIWNWPQGVGLYGIYKNYRNTKSEKALQVVNDWFEGRMQEGAPPKNVNTMAPLLTMAYLYEDTKDSKYIPYLEQWAEWVMEEMPRTNEGGLQHATYGPENKNQLWDDTLMMTVLPLAKIGKLLNRLDYLEEAKHQFLIHIKYLQDKKSGLWYHGWTFEGNHNYAEALWARGNCWITIAIPEIIEILELPKGDSLREFLLSTLNAQVAALAKYQDESGLWHTLINDSNSYLESSATAGFAYGILKAVHKKYISSEYEEVANKAIAGLLNEIDETGEVQHVSVGTGMGDNLDFYRTIGMTAMPYGQSLTILCLTELLVSYC	not soluble
